Substrate: CC/C=C\C/C=C\C/C=C\C/C=C\C/C=C\CCCC(=O)O
Assay: purified protein
Assay type: biochemical, Myxococcus fulvus
Conditions: PBS, no detergent; O2 co-substrate; fit over all substrate concentrations up to 200 µM

B1: MF-LOX1 (Myxococcus fulvus LOX1) (Myxococcus fulvus) (protein)
chain: MTVEYKLRIRTSTKLGAGTDANISVVLVGTRGESGPHVLDKPFHNDFEAGAEDVYSVQASDDVGALLLLRFGNTGGIAADWLLDHAWVTAGERQWSFPFFRWVRAGATVDVLEGTAKLARHAGCEREATARRELLEARRRMYPWRPAEATEGLPGALDLSEAQPLPKDELYRGLTEGSYEVVIARTLAAIKLHLPLLSKAWNGLVDIFDFFKGLEVPRLAPRWQDDLEFARQAVQGINPLHITLIPQLPQGMPLTDEDVKGVLSPGTTLARALDSKRIFLLDFDILEDIPMYRKVDEDGVEERRWAPAARCLLYLDDLRQLRPLAIQLGRDGGKDPVFTPNDDTYDWLAAKIYLRCSEGNTHQMVAHALRTHFVAEPFVMATMRNLPDPHPVYKLLRRHFRYTLAINEGARKGLLAAGGVFDDFIATGGPDKGHLQLGKKGYQRWKLTDNRPREDLEHRGVLDPAVLPYYPYRDDALPLWDALEEYVGGVLRYFYPTDADLEGDTEMQHWWKDLTEHGLPVDKLPCRELSRVDDLVDILTTVVFTVSVQHAAVNYLQYEHYAFVPNAPLCMRREPPRQKGTLCAEDLPEMIPSRSQTLWQVAIGRALSSFGDDEEYLLNEGGWREEYFQEPQVRALRERFEQRLRAQRDVVAARNAGAQVPYTVLSPDRIPCGITV
notes: full length, native protein 676 residues; N-terminal hexa-His tag kept, 32 extra N-terminal residues (pET28b); E. coli, Ni-agarose
Km: 70 µM
kcat: (3.1 ± 1.2) x 10^−2 s^-1

Source: PMC6612559, “Functional characterization of a novel arachidonic acid 12S‐lipoxygenase in the halotolerant bacterium Myxococcus fulvus exhibiting complex social living patterns” (MicrobiologyOpen, 2018)
